Results on three molecules are retold here after article doi:10.1101/2021.11.23.469727 (bioRxiv, 2021).

Numbering of substitutions follows the chain as printed.

The data set “native gel or EMSA” concerns the molecule itself. Put plainly: native gel or EMSA. For orientation: A gel shift assay detects complexes by their altered migration in electrophoresis.
For another data set, the target named is T1, Halo:ATML1 (Arabidopsis thaliana, UniProt Q8RWU4 1-762).
T1 sequence: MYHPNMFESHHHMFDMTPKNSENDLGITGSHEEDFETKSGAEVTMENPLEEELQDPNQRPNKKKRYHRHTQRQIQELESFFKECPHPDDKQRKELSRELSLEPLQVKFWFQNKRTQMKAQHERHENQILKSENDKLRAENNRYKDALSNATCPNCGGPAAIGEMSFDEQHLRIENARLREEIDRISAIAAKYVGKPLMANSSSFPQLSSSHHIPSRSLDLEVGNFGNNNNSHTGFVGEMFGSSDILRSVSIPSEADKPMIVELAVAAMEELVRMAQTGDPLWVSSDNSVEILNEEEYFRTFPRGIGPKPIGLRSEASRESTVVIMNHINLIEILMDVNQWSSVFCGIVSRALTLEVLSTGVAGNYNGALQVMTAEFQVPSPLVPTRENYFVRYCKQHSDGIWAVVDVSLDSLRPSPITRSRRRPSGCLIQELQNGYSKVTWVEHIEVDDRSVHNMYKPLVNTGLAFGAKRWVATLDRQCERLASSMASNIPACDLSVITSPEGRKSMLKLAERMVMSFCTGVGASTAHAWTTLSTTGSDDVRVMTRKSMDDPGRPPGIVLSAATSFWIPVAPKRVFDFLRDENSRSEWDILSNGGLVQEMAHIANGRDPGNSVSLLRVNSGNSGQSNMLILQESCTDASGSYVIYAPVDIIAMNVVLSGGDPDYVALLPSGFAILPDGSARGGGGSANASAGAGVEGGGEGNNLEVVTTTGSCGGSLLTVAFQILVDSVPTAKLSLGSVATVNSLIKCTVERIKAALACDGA
Put plainly: EMSA.

Another data set deals with T2, Halo:PDF2 (Arabidopsis thaliana, UniProt Q93V99 1-743).
T2 sequence: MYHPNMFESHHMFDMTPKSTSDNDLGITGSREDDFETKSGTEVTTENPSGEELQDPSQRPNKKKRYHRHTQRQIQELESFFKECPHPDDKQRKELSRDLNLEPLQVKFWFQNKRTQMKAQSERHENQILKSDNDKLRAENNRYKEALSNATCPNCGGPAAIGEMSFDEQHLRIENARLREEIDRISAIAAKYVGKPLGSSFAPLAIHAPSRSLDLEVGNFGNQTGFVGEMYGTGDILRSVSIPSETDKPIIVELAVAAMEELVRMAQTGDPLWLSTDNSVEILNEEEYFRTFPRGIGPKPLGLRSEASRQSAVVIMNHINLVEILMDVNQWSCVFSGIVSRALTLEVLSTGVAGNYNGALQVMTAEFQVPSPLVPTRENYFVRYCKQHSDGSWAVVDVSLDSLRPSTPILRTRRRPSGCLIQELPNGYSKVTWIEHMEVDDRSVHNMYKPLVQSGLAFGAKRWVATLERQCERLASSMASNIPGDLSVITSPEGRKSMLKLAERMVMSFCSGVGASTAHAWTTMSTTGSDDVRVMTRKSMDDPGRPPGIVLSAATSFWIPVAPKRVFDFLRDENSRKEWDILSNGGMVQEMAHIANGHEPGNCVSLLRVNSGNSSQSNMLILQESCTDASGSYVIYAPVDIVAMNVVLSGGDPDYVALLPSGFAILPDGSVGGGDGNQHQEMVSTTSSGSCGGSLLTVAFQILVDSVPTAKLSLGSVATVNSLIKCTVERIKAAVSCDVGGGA
The data set is described as follows: EMSA.

Another data set concerns the target T3, Halo:pdf2K107E (Arabidopsis thaliana, UniProt Q93V99 1-743, K107E).
T3 sequence: T2 sequence with K107E
Put plainly: EMSA.

The target of another data set is T4, Halo:pdf2ΔST (Arabidopsis thaliana, UniProt Q93V99 1-244+475-743, internal_change).
T4 sequence: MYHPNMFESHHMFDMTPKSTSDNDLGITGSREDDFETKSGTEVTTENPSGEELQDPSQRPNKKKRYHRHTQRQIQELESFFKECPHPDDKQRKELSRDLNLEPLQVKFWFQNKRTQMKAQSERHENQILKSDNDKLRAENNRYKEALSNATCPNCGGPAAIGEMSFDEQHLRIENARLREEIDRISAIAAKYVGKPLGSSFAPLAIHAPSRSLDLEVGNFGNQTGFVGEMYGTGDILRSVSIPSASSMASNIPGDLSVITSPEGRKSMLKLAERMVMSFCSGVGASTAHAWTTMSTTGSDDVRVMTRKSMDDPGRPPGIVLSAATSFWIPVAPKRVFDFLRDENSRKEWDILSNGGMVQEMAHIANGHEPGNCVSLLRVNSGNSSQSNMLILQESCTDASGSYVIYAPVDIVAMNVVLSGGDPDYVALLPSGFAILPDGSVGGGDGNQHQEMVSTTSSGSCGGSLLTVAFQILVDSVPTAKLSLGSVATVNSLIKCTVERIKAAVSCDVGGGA
The data set is described as follows: EMSA.

For another data set, the target named is T5, Halo:atml1ΔST (Arabidopsis thaliana, UniProt Q8RWU4 1-253+483-762, internal_change).
T5 sequence: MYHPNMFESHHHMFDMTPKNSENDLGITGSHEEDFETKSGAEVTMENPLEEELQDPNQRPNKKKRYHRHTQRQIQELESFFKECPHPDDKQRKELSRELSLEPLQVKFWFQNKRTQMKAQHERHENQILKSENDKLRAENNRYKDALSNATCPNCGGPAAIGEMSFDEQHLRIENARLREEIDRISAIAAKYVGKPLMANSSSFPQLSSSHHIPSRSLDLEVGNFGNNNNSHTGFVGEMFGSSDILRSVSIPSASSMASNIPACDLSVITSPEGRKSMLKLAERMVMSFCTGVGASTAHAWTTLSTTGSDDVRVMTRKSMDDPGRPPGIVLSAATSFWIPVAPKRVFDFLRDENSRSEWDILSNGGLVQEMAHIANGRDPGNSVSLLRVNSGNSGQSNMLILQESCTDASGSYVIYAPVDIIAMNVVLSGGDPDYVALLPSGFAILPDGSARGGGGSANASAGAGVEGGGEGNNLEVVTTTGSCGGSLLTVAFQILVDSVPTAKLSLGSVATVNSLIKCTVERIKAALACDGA
The data set is described as follows: EMSA.

B1: ATML1 (Arabidopsis thaliana MERISTEM LAYER1), wild type, protein of the EMSA (natural protein, UniProt Q8RWU4 1-762, looked up)
chain: T1 sequence
Take B1: in the data set “native gel or EMSA”, the stoichiometry N (as a rule, the number of molecules, sites or subunits per partner or assembly) came to 2.

B2: L1-box probe (3x L1 motif) (dsDNA)
DNA 1: GGGTACATTTATACATTTATACATTTAAAT
DNA 2: ATTTAAATGTATAAATGTATAAATGTACCC
As to B2, the binding result with Halo:ATML1 is “binds”; with Halo:PDF2 it was “binds”; in the data set with Halo:pdf2K107E, “no binding”; in the data set with Halo:pdf2ΔST it was “binds”; in the data set with Halo:atml1ΔST, “binds”.

B3: Halo:PDF2 (PROTODERMAL FACTOR2, full length, Halo-tagged) (natural protein, Arabidopsis thaliana, UniProt Q93V99 1-743, looked up)
chain: T2 sequence
Consider B3, for which the “stoichiometry N” value in “native gel or EMSA” stood at 2.
